{"source": "FireProtDB (doi:10.1016/0141-8130(95)93517-2)", "details": "Armoracia rusticana, CD, reversible: yes, whole UniProt chain shown", "key": {"[1]": {"details": "pH 3.2, 22 °C, GdnHCl, glycine 50 mM"}, "[2]": {"details": "pH 3.2, 22 °C, Urea, glycine 50 mM"}, "[3]": {"details": "pH 3.2, 25 °C, GdnHCl, glycine 50 mM"}, "[4]": {"details": "pH 3.2, 25 °C, Urea, glycine 50 mM"}, "[5]": {"details": "pH 3.2, 27 °C, GdnHCl, glycine 50 mM"}, "[6]": {"details": "pH 3.2, 27 °C, Urea, glycine 50 mM"}, "[7]": {"details": "pH 3.2, 30 °C, GdnHCl, glycine 50 mM"}, "[8]": {"details": "pH 3.2, 30 °C, Urea, glycine 50 mM"}, "[9]": {"details": "pH 6.4, 22 °C, GdnHCl, sodium phosphate 2.5 mM"}, "[10]": {"details": "pH 6.4, 22 °C, Urea, sodium phosphate 2.5 mM"}, "[11]": {"details": "pH 6.4, 25 °C, GdnHCl, sodium phosphate 2.5 mM"}, "[12]": {"details": "pH 6.4, 25 °C, Urea, sodium phosphate 2.5 mM"}, "[13]": {"details": "pH 6.4, 27 °C, GdnHCl, sodium phosphate 2.5 mM"}, "[14]": {"details": "pH 6.4, 27 °C, Urea, sodium phosphate 2.5 mM"}, "[15]": {"details": "pH 6.4, 30 °C, GdnHCl, sodium phosphate 2.5 mM"}, "[16]": {"details": "pH 6.4, 30 °C, Urea, sodium phosphate 2.5 mM"}, "[17]": {"details": "pH 10, 22 °C, GdnHCl, glycine 50 mM"}, "[18]": {"details": "pH 10, 22 °C, Urea, glycine 50 mM"}, "[19]": {"details": "pH 10, 25 °C, GdnHCl, glycine 50 mM"}, "[20]": {"details": "pH 10, 25 °C, Urea, glycine 50 mM"}, "[21]": {"details": "pH 10, 27 °C, GdnHCl, glycine 50 mM"}, "[22]": {"details": "pH 10, 27 °C, Urea, glycine 50 mM"}, "[23]": {"details": "pH 10, 30 °C, GdnHCl, glycine 50 mM"}, "[24]": {"details": "pH 10, 30 °C, Urea, glycine 50 mM"}}, "data": [{"protein": "Peroxidase C2 wild type, P17179 (protein) MHSSSSLIKLGFLLLLLNVSLSHAQLSPSFYDKTCPQVFDIATNTIKTALRSDPRIAASILRLHFHDCFVNGCDASILLDNTTSFRTEKDAFGNARSARGFDVIDTMKAAVEKACPKTVSCADLLAIAAQKSVVLAGGPSWKVPSGRRDSLRGFMDLANDNLPGPSSTLQVLKDKFRNVGLDRPSDLVALSGGHTFGKNQCQFIMDRLYNFSNSGKPDPTLDKSYLSTLRKQCPRNGNLSVLVDFDLRTPTIFDNKYYVNLKENKGLIQSDQELFSSPDASDTIPLVRAYADGQGKFFDAFVEAMIRMGNLSPSTGKQGEIRLNCRVVNSKPKIMDVVDTNDFASSI", "values": [{"measurement": "denaturant m value", "setting": "[1]", "value": 2.86, "unit": "kcal/mol/M"}, {"measurement": "unfolding free energy", "setting": "[1]", "value": 6.75, "unit": "kcal/mol"}, {"measurement": "denaturant m value", "setting": "[2]", "value": 1.23, "unit": "kcal/mol/M"}, {"measurement": "unfolding free energy", "setting": "[2]", "value": 6.42, "unit": "kcal/mol"}, {"measurement": "denaturant m value", "setting": "[3]", "value": 2.94, "unit": "kcal/mol/M"}, {"measurement": "unfolding free energy", "setting": "[3]", "value": 6.25, "unit": "kcal/mol"}, {"measurement": "denaturant m value", "setting": "[4]", "value": 1.26, "unit": "kcal/mol/M"}, {"measurement": "unfolding free energy", "setting": "[4]", "value": 5.94, "unit": "kcal/mol"}, {"measurement": "denaturant m value", "setting": "[5]", "value": 2.99, "unit": "kcal/mol/M"}, {"measurement": "unfolding free energy", "setting": "[5]", "value": 5.68, "unit": "kcal/mol"}, {"measurement": "denaturant m value", "setting": "[6]", "value": 1.31, "unit": "kcal/mol/M"}, {"measurement": "unfolding free energy", "setting": "[6]", "value": 5.63, "unit": "kcal/mol"}, {"measurement": "denaturant m value", "setting": "[7]", "value": 3.2, "unit": "kcal/mol/M"}, {"measurement": "unfolding free energy", "setting": "[7]", "value": 4.98, "unit": "kcal/mol"}, {"measurement": "denaturant m value", "setting": "[8]", "value": 1.37, "unit": "kcal/mol/M"}, {"measurement": "unfolding free energy", "setting": "[8]", "value": 5.18, "unit": "kcal/mol"}, {"measurement": "denaturant m value", "setting": "[9]", "value": 4.75, "unit": "kcal/mol/M"}, {"measurement": "unfolding free energy", "setting": "[9]", "value": 6.68, "unit": "kcal/mol"}, {"measurement": "denaturant m value", "setting": "[10]", "value": 2.02, "unit": "kcal/mol/M"}, {"measurement": "unfolding free energy", "setting": "[10]", "value": 6.45, "unit": "kcal/mol"}, {"measurement": "denaturant m value", "setting": "[11]", "value": 4.9, "unit": "kcal/mol/M"}, {"measurement": "unfolding free energy", "setting": "[11]", "value": 6.38, "unit": "kcal/mol"}, {"measurement": "denaturant m value", "setting": "[12]", "value": 2.06, "unit": "kcal/mol/M"}, {"measurement": "unfolding free energy", "setting": "[12]", "value": 5.94, "unit": "kcal/mol"}, {"measurement": "denaturant m value", "setting": "[13]", "value": 5.08, "unit": "kcal/mol/M"}, {"measurement": "unfolding free energy", "setting": "[13]", "value": 6.22, "unit": "kcal/mol"}, {"measurement": "denaturant m value", "setting": "[14]", "value": 2.11, "unit": "kcal/mol/M"}, {"measurement": "unfolding free energy", "setting": "[14]", "value": 5.87, "unit": "kcal/mol"}, {"measurement": "denaturant m value", "setting": "[15]", "value": 5.16, "unit": "kcal/mol/M"}, {"measurement": "unfolding free energy", "setting": "[15]", "value": 5.62, "unit": "kcal/mol"}, {"measurement": "denaturant m value", "setting": "[16]", "value": 2.18, "unit": "kcal/mol/M"}, {"measurement": "unfolding free energy", "setting": "[16]", "value": 5.69, "unit": "kcal/mol"}, {"measurement": "denaturant m value", "setting": "[17]", "value": 2.85, "unit": "kcal/mol/M"}, {"measurement": "unfolding free energy", "setting": "[17]", "value": 6.7, "unit": "kcal/mol"}, {"measurement": "denaturant m value", "setting": "[18]", "value": 1.28, "unit": "kcal/mol/M"}, {"measurement": "unfolding free energy", "setting": "[18]", "value": 6.71, "unit": "kcal/mol"}, {"measurement": "denaturant m value", "setting": "[19]", "value": 2.99, "unit": "kcal/mol/M"}, {"measurement": "unfolding free energy", "setting": "[19]", "value": 6.4, "unit": "kcal/mol"}, {"measurement": "denaturant m value", "setting": "[20]", "value": 1.3, "unit": "kcal/mol/M"}, {"measurement": "unfolding free energy", "setting": "[20]", "value": 6.36, "unit": "kcal/mol"}, {"measurement": "denaturant m value", "setting": "[21]", "value": 3.11, "unit": "kcal/mol/M"}, {"measurement": "unfolding free energy", "setting": "[21]", "value": 5.87, "unit": "kcal/mol"}, {"measurement": "denaturant m value", "setting": "[22]", "value": 1.37, "unit": "kcal/mol/M"}, {"measurement": "unfolding free energy", "setting": "[22]", "value": 6.04, "unit": "kcal/mol"}, {"measurement": "denaturant m value", "setting": "[23]", "value": 3.17, "unit": "kcal/mol/M"}, {"measurement": "unfolding free energy", "setting": "[23]", "value": 5.23, "unit": "kcal/mol"}, {"measurement": "denaturant m value", "setting": "[24]", "value": 1.4, "unit": "kcal/mol/M"}, {"measurement": "unfolding free energy", "setting": "[24]", "value": 5.54, "unit": "kcal/mol"}]}]}
